{"source": "paper PMC3823767", "about": "“The ATP-Mediated Regulation of KaiB-KaiC Interaction in the Cyanobacterial Circadian Clock” (PLoS ONE, 2013)", "binders": {"B1": {"name": "KaiC_(S431D&T432D) (KaiCDD) (natural protein, UniProt Q79V60 1-518, looked up)", "chain": "MTNLPEHQSSPTEQSSAEVKKIPTMIEGFDDISHGGLPQGRTTLVSGTSGTGKTLFAVQFLYNGITIFNEPGIFVTFEESPQDIIKNALSFGWNLQSLIDQGKLFILDASPDPDGQEVAGDFDLSALIERIQYAIRKYKATRVSIDSVTAVFQQYDAASVVRREIFRLAFRLKQLGVTTIMTTERVDEYGPVARFGVEEFVSDNVVILRNVLEGERRRRTVEILKLRGTTHMKGEYPFTINNGINIFPLGAMRLTQRSSNVRVSSGVKTLDEMCGGGFFKDSIILATGATGTGKTLLVSKFLETGCQQGERALLFAYEESRAQLSRNASSWGIDFEELERRGLLRIICAYPESAGLEDHLQIIKSEIADFKPSRVAIDSLSALARGVSNNAFRQFVIGVTGFAKQEEITGFFTNTTDQFMGSNSITESHIDDITDTILLLQYVEIRGEMSRAINVFKMRGSWHDKGIREYVITEKGAEIRDSFRNFEGIISGTPTRISVDEKTELARIAKGMQDLESE", "notes": "KaiC, Thermosynechococcus elongatus BP-1, subunit of 518 amino acid residues, aspartate at the two phosphorylation sites; Used as monomer (KaiC^1mer, no ATP) and as hexamer (KaiC^6mer; with Mg-ATP, ATP, Mg-AMPPNP, Mg-ATPγS or Mg-ADP-AlFx); the assay tells which; also called KaiCDD^1mer; KaiCDD^6mer"}, "B2": {"name": "N-terminal domain mutant protein of KaiC, residues 1 to 268 (KaiCN) (domain or fragment, UniProt Q79V60 1-268, looked up)", "chain": "MTNLPEHQSSPTEQSSAEVKKIPTMIEGFDDISHGGLPQGRTTLVSGTSGTGKTLFAVQFLYNGITIFNEPGIFVTFEESPQDIIKNALSFGWNLQSLIDQGKLFILDASPDPDGQEVAGDFDLSALIERIQYAIRKYKATRVSIDSVTAVFQQYDAASVVRREIFRLAFRLKQLGVTTIMTTERVDEYGPVARFGVEEFVSDNVVILRNVLEGERRRRTVEILKLRGTTHMKGEYPFTINNGINIFPLGAMRLTQRSSNVRVSSGVK", "notes": "KaiC, Thermosynechococcus elongatus BP-1, N-terminal domain, residues 1-268; Used as monomer (no ATP) and as hexamer (with ATP or Mg-ATP); the assay tells which; also called KaiCN^1mer; KaiCN^6mer"}, "B3": {"name": "wild-type KaiB (KaiBWT) (natural protein, UniProt Q79V61 1-108, looked up)", "chain": "MAPLRKTYVLKLYVAGNTPNSVRALKTLNNILEKEFKGVYALKVIDVLKNPQLAEEDKILATPTLAKVLPPPVRRIIGDLSNREKVLIGLDLLYEEIGDQAEDDLGLE", "notes": "KaiB, Thermosynechococcus elongatus BP-1, wild type, subunit of 108 amino acid residues; also called KaiBWT^4mer; KaiB^4mer"}, "B4": {"name": "mutant KaiB with a C-terminal deletion of residues 95 to 108 (KaiB1-94) (domain or fragment, UniProt Q79V61 1-94, looked up)", "chain": "MAPLRKTYVLKLYVAGNTPNSVRALKTLNNILEKEFKGVYALKVIDVLKNPQLAEEDKILATPTLAKVLPPPVRRIIGDLSNREKVLIGLDLLY", "notes": "KaiB, Thermosynechococcus elongatus BP-1, residues 1-94 (C-terminal residues 95-108 deleted)"}}, "key": {"[1]": {"biological_target": "the molecule itself", "assay": "native gel or EMSA; 5 μM monomeric KaiC incubated with 1 mM ATP with or without 5 mM MgCl2 at 4 °C; monomer to hexamer"}, "[2]": {"biological_target": "B1", "assay": "native gel or EMSA; KaiBWT (1 μM) or KaiB1-94 (2 μM) with 1 μM KaiCDD hexamer in reaction buffer (20 mM HEPES-NaOH pH 7.5, 150 mM NaCl) with Mg-ATP at 40 °C, time course; 10 % native gel, CBB, densitometry", "details": "both partners purified"}, "wild-type KaiC (KaiCWT)": {"biological_target": "T1, wild-type KaiC (KaiCWT) (Thermosynechococcus elongatus BP-1 …, UniProt Q79V60 1-518, phosphorylation level of the KaiCWT preparations about 30 % (phosphorylation sites Ser431 and Thr432))", "T1 construct": "KaiC, Thermosynechococcus elongatus BP-1, wild type, subunit of 518 amino acid residues; Used as hexamer formed with Mg-ATP; also called KaiCWT^6mer", "T1 sequence (looked up)": "B1 chain with D431S, D432T", "assay": "native gel or EMSA; KaiC hexamer (formed with Mg-ATP, 1 μM) with 5 μM KaiB1-94 in the presence of Mg-ATP at 4 °C; native PAGE, complex bands checked by second-dimension SDS-PAGE", "details": "both partners purified"}, "KaiC_(K294H)": {"biological_target": "T2, KaiC_(K294H) (Thermosynechococcus elongatus BP-1 …, UniProt Q79V60 1-518, K294H)", "T2 construct": "KaiC, Thermosynechococcus elongatus BP-1, 518 residues, K294H in Walker's motif A of the C-terminal domain; Used as hexamer formed with Mg-ATP; also called KaiC_(K294H)^6mer", "T2 sequence (looked up)": "B1 chain with K294H, D431S, D432T", "assay": "native gel or EMSA; KaiC hexamer (formed with Mg-ATP, 1 μM) with 5 μM KaiB1-94 in the presence of Mg-ATP at 4 °C; native PAGE, complex bands checked by second-dimension SDS-PAGE", "details": "both partners purified"}, "[3]": {"biological_target": "B1", "assay": "native gel or EMSA; monomeric KaiC (5 μM; 1 μM for the concentration series) with KaiB1-94 or 7.5 μM KaiBWT in reaction buffer without ATP, 4 °C, 6 h (KaiC_(C/DD) also at 25 °C); 10 % native gel, CBB, densitometry", "details": "both partners purified"}, "[4]": {"biological_target": "B2", "assay": "native gel or EMSA; monomeric KaiC (5 μM; 1 μM for the concentration series) with KaiB1-94 or 7.5 μM KaiBWT in reaction buffer without ATP, 4 °C, 6 h (KaiC_(C/DD) also at 25 °C); 10 % native gel, CBB, densitometry", "details": "both partners purified"}, "KaiC_(K53H/DD)": {"biological_target": "T3, KaiC_(K53H/DD) (Thermosynechococcus elongatus BP-1 …, UniProt Q79V60 1-518, K53H | S431D | T432D)", "T3 construct": "KaiC, Thermosynechococcus elongatus BP-1, 518 residues, K53H in the N-terminal Walker's motif A plus the DD mutation; Used as monomer (no ATP) and as hexamer (with Mg-ATP); the assay tells which; also called KaiC_(K53H/DD)^1mer; KaiC_(K53H/DD)^6mer", "T3 sequence (looked up)": "B1 chain with K53H", "assay": "native gel or EMSA; monomeric KaiC (5 μM; 1 μM for the concentration series) with KaiB1-94 or 7.5 μM KaiBWT in reaction buffer without ATP, 4 °C, 6 h (KaiC_(C/DD) also at 25 °C); 10 % native gel, CBB, densitometry", "details": "both partners purified"}, "KaiC_(K294H/DD)": {"biological_target": "T4, KaiC_(K294H/DD) (Thermosynechococcus elongatus BP-1 …, UniProt Q79V60 1-518, K294H | S431D | T432D)", "T4 construct": "KaiC, Thermosynechococcus elongatus BP-1, 518 residues, K294H in Walker's motif A (C-terminal ATPase motif mutation by the results) plus the DD mutation; Used as monomer (no ATP) and as hexamer (with Mg-ATP); the assay tells which; also called KaiC_(K294H/DD)^1mer; KaiC_(K294H/DD)^6mer", "T4 sequence (looked up)": "B1 chain with K294H", "assay": "native gel or EMSA; monomeric KaiC (5 μM; 1 μM for the concentration series) with KaiB1-94 or 7.5 μM KaiBWT in reaction buffer without ATP, 4 °C, 6 h (KaiC_(C/DD) also at 25 °C); 10 % native gel, CBB, densitometry", "details": "both partners purified"}}, "note": "Changes are numbered by the printed parent chain. Numbers in names are those of the source."}
{"binder": "B1", "values": [{"measurement": "stoichiometry N", "setting": "[1]", "value": 6}]}
{"binder": "B2", "values": [{"measurement": "stoichiometry N", "setting": "[1]", "value": 6}]}
{"binder": "B3", "values": [{"measurement": "binding result", "setting": "[2]", "value": "binds"}]}
{"binder": "B4", "values": [{"measurement": "binding result", "setting": "wild-type KaiC (KaiCWT)", "value": "binds"}, {"measurement": "binding result", "setting": "KaiC_(K294H)", "value": "binds"}, {"measurement": "t1/2 of complex formation", "setting": "[2]", "value": 1.2, "unit": "h"}, {"measurement": "EC50", "setting": "[3]", "value": "~700", "unit": "nM"}, {"measurement": "t1/2 of complex formation", "setting": "[3]", "value": "~2.5", "unit": "h"}, {"measurement": "binding result", "setting": "[4]", "value": "binds"}, {"measurement": "binding result", "setting": "KaiC_(K53H/DD)", "value": "binds"}, {"measurement": "binding result", "setting": "KaiC_(K294H/DD)", "value": "binds"}]}
